Assay results: US20140341881A1 (DERMADIS, published 2014)
Changes are numbered by the printed parent chain.

T1: human neutrophil elastase (HNE) (human, UniProt P08246 30-247, limits assumed)
T1 sequence (looked up): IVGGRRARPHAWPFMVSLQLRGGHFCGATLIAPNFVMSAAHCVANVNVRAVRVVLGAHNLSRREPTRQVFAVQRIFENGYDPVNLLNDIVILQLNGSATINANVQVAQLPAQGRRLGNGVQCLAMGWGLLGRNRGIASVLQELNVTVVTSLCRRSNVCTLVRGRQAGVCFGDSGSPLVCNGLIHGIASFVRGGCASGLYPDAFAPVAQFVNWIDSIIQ

T2: human kallikrein 14 (hK14) (human, UniProt Q9P0G3 25-251, limits assumed)
T2 sequence (looked up): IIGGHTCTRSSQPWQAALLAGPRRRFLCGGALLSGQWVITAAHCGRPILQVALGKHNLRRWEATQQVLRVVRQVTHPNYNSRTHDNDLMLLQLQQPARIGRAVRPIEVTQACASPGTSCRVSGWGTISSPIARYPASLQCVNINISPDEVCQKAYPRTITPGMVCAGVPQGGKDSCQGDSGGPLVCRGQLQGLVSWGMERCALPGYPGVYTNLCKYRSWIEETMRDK

T3: human kallikrein 5 (hK5) (human, UniProt Q9Y337 67-293, limits assumed)
T3 sequence (looked up): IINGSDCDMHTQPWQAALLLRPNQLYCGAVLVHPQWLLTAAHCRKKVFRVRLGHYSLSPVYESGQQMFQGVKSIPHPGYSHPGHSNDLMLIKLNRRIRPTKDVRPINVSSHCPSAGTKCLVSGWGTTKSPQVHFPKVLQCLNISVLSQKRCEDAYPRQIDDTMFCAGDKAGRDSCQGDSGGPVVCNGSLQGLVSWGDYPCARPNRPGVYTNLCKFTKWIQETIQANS

T4: human kallikrein 8 (hK8) (human, UniProt O60259 33-260)
T4 sequence (looked up): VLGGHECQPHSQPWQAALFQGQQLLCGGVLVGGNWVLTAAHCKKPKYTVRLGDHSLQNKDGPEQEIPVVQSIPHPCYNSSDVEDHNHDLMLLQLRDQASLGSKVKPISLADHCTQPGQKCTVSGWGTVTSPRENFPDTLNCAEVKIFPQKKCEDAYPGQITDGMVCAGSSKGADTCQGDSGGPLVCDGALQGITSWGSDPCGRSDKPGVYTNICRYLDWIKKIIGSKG

T5: human kallikrein 13 (hK13) (human, UniProt Q9UKR3 26-277, limits assumed)
T5 sequence (looked up): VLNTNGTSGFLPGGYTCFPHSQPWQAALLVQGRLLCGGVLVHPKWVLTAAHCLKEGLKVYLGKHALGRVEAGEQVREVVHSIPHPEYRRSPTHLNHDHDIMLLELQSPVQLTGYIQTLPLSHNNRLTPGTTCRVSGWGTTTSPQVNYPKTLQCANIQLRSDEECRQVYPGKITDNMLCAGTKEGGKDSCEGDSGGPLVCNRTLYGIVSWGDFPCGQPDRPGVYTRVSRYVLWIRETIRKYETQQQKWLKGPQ

B1: AATE8 (other, human)
chain: HHHHHHEDPQGDAAQKTDTSHHDQDHPTFNKITPNLAEFAFSLYRQLAHQSNSTNIFFSPVSIATAFAMLSLGTKADTHDEILEGLNFNLTEIPEAQIHEGFQELLRTLNQPDSQLQLTTGNGLFLSEGLKLVDKFLEDVKKLYHSEAFTVNFGDTEEAKKQINDYVEKGTQGKIVDLVKELDRDTVFALVNYIFFKGKWERPFEVKDTEEEDFHVDQVTTVKVPMMKRLGMFNIQHCKKLSSWVLLMKYLGNATAIFFLPDEGKLQHLENELTHDIITKFLENEDRRSASLHLPKLSITGTYDLKSVLGQLGITKVFSNGADLSGVTEEAPLKLSKAVHKAVLTIDEKGTEAAGAMFLEALQRAIPPEVKFNKPFVFLMIEQNTKSPLFMGKVVNPTQK
notes: mature; also called rAATE8
B2: AATG9 (other, human)
chain: B1 chain with A361T, L362V, Q363D, R364Y
notes: mature; also called rAATG9
B3: rACTWT (recombinant wild type alpha-1-antichymotrypsin) (other, human)
chain: HHHHHHHPNSPLDEENLTQENQDRGTHVDLGLASANVDFAFSLYKQLVLKAPDKNVIFSPLSISTALAFLSLGAHNTTLTEILKGLKFNLTETSEAEIHQSFQHLLRTLNQSSDELQLSMGNAMFVKEQLSLLDRFTEDAKRLYGSEAFATDFQDSAAAKKLINDYVKNGTRGKITDLIKDLDSQTMMVLVNYIFFKAKWEMPFDPQDTHQSRFYLSKKKWVMVPMMSLHHLTIPYFRDEELSCTVVELKYTGNASALFILPDQDKMEEVEAMLLPETLKRWRDSLEFREIGELYLPKFSISRDYNLNDILLQLGIEEAFTSKADLSGITGARNLAVSQVVHKAVLDVFEEGTEASAATAVKITLLSALVETRTIVRFNRPFLMIIVPTDTQNIFFMSKVTNPKQA
notes: also called wild type rACT; wild type ACT

Columns and labels:
human kallikrein 2 (hK2) [1] = target: T6, human kallikrein 2 (hK2) (human, UniProt P20151 25-261); assay: cell-based or functional assay
[2] = target: T7, prostate specific antigen (PSA, hK3) (human, UniProt P07288 25-261); assay: cell-based or functional assay
[3] = target: T8, human chymotrypsin (Chtr) (human, UniProt P17538 19-263); assay: cell-based or functional assay
[4] = target: T9, human plasma kallikrein (PK) (human, UniProt P03952 20-638); assay: cell-based or functional assay
[5] = target: T1, human neutrophil elastase (HNE); assay: cell-based or functional assay
thrombin [6] = assay: cell-based or functional assay
[7] = target: T2, human kallikrein 14 (hK14); assay: cell-based or functional assay
human kallikrein 5 (hK5) = target: T3, human kallikrein 5 (hK5); assay: cell-based or functional assay
human kallikrein 6 (hK6) = human kallikrein 6 (hK6) (human, UniProt Q92876 22-244); assay: cell-based or functional assay
human kallikrein 8 (hK8) = target: T4, human kallikrein 8 (hK8); assay: cell-based or functional assay
[8] = target: T5, human kallikrein 13 (hK13); assay: cell-based or functional assay
[9] = target: T8, human chymotrypsin (Chtr); assay: cell-based or functional assay; remark: listed apart in the source
[10] = target: T9, human plasma kallikrein (PK); assay: cell-based or functional assay; remark: listed apart in the source
[11] = target: T10, urokinase plasminogen activator (uPA) (UniProt P00749 21-431, limits assumed); assay: cell-based or functional assay
[12] = target: T1, human neutrophil elastase (HNE); assay: cell-based or functional assay; remark: listed apart in the source
thrombin [13] = assay: cell-based or functional assay; remark: listed apart in the source
[14] = target: T2, human kallikrein 14 (hK14); assay: cell-based or functional assay; remark: listed apart in the source
[15] = target: T2, human kallikrein 14 (hK14); assay: residual hK14 activity against [I0]/[E0]
Experimental: (§1) SI values of rAAT, rACT, and their variants were determined with hK14 incubating the protease with varying concentrations of inhibitor. After an incubation of 4 hours at 37° C. in reaction buffer (50 mM Tris, pH 7.5, 150 mM NaCl, 0.05% Triton X-100, 0.01% BSA), the residual activity was detected by the addition of fluorescent substrate (Boc-Val-Pro-Arg-AMC). Fluorescence was measured with excitation at 340 nm (±15) and emission at 485 nm (±10) in black 96 well plates using a microplate fluorescence reader FLₓ800 (Bio-Tek Instruments, Inc.). The SI value corresponds to the abscissa intercept of the linear regression analysis of fractional velocity (velocity of inhibited enzyme reaction (vi)/velocity of uninhibited enzyme reaction (v₀)) vs. the molar ratio of the inhibitor to enzyme ([I₀]/[E₀]).

[16] = target: T2, human kallikrein 14 (hK14); assay: residual hK14 activity after 4 h at 37 C against [I0]/[E0]
Experimental: as §1

human kallikrein 2 (hK2) [17] = target: T6, human kallikrein 2 (hK2); assay: cell-based or functional assay; remark: listed apart in the source
[18] = target: T7, prostate specific antigen (PSA, hK3); assay: cell-based or functional assay; remark: listed apart in the source
human kallikrein hK1 = human kallikrein hK1 (human, UniProt P06870 25-262); assay: cell-based or functional assay
[19] = target: T8, human chymotrypsin (Chtr); assay: cell-based or functional assay; remark: listed apart in the source
[20] = target: T10, urokinase plasminogen activator (uPA); assay: cell-based or functional assay; remark: listed apart in the source
[21] = target: T8, human chymotrypsin (Chtr); assay: residual enzyme activity against [I]o/[E]o, fluorogenic substrate
Experimental: The stoichiometry of inhibition (SI) values were determined for the inhibition of rACTWT and its variants with hK2 and different other enzymes. An initial test was made with a molar excess of rACT (100 fold) over hK2, PSA, hK1, chymotrypsin (Chtr), plasma kallikrein (PK), urokinase (uPA) and human neutrophile elastase (HNE) enzymes. The reaction was carried out for 30 min at 25° C. (90 min at 37° C. for PSA) in reaction buffer (50 mM Tris pH 7.5, 150 mM NaCl, 0,05% Triton X-100, 0.01% BSA) and residual enzyme activity was measured by adding fluorescent substrates (Z-Phe-Arg-AMC for hK1, hK2 and PK, Suc-Ala-Ala-Pro-Phe-AMC for Chtr, Z-Gly-Gly-Arg-AMC for uPA, MeOSuc-Ala-Ala-Pro-Val-AMC for HNE, and CFP-TFRSA-YFP (TFRSA SEQ ID NO:137) for PSA). Activity of enzyme in presence of inhibitors was compared to uninhibited reaction. For reactions where an inhibition was observed, SI was determined by incubating different concentrations of recombinant serpins. Using linear regression analysis of fractional activity (velocity of inhibited enzyme reaction/velocity of uninhibited enzyme reaction) versus the molar ratio of the inhibitor to enzyme ([Iₒ]/[Eₒ]), the stoichiometry of inhibition, corresponding to the abscissa intercept, was obtained.

T9 sequence (P03952 20-638 limits assumed): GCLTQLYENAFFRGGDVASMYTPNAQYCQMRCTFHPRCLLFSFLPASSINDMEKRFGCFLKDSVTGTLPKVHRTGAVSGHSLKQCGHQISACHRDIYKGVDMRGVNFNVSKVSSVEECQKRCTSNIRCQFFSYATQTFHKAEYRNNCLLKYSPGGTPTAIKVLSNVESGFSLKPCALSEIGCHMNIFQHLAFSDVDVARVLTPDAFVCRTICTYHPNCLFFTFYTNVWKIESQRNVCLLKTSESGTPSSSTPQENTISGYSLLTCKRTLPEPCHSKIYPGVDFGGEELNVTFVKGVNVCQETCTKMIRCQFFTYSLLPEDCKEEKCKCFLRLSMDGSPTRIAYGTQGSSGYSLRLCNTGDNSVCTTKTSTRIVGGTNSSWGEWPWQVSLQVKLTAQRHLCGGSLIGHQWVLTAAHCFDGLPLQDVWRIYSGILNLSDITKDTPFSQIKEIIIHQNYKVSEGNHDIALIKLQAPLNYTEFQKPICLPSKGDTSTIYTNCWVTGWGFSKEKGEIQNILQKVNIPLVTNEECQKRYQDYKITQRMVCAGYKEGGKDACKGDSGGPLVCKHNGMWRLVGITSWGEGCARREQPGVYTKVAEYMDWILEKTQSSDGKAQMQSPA
T8 sequence (P17538 19-263): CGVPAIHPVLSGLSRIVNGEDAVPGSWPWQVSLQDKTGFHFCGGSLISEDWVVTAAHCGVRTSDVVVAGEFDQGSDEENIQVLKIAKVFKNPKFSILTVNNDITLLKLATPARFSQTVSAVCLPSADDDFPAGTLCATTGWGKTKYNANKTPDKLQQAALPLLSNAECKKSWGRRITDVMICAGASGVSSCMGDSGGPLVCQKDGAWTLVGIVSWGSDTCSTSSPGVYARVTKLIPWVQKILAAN

Binder	Percentage inhibition (human kallikrein 2 (hK2) [1]) [%]	Percentage inhibition [2] [%]	Percentage inhibition [3] [%]	Percentage inhibition [4] [%]	Percentage inhibition [5] [%]	Percentage inhibition (thrombin [6]) [%]	Percentage inhibition [7] [%]	Percentage inhibition (human kallikrein 5 (hK5)) [%]	Percentage inhibition (human kallikrein 6 (hK6)) [%]	Percentage inhibition (human kallikrein 8 (hK8)) [%]	Percentage inhibition [8] [%]	% Inhibition [9] [%]	% Inhibition [10] [%]	% Inhibition [11] [%]	% Inhibition [12] [%]	% Inhibition (thrombin [13]) [%]	% Inhibition [14] [%]	SI (stoichiometry of inhibition) [15]	SI (stoichiometry of inhibition) [16]	also measured
B1	19	0	19	100	0	0	100	100	100	36	30	19	100	0	0	0	100	7.4	7.4	–
B2	0	0	100	0	0	0	100	30	0	0	0	100	0	0	0	0	100	1.2	1.2	–
B3	0	100	100	–	–	18	–	7	24	0	0	100	–	0	–	18	–	–	–	INHIBITION % (human kallikrein 2 (hK2) [17]): 0%; INHIBITION % [18]: 80%; INHIBITION % (human kallikrein hK1): 0%; INHIBITION % [19]: 100%; INHIBITION % [20]: 0%; SI (stoichiometry of inhibition) [21]: 2
